The target in test [1] is T1, Recombinant human CD123 SP1 ECD-His tag protein (human, UniProt P26951 20-305).
T1 construct: bought from R&D Systems (#301-R3/CF); biotinylated for some assays; also called rhCD123 SP1; huCD123 ECD SP1
T1 sequence: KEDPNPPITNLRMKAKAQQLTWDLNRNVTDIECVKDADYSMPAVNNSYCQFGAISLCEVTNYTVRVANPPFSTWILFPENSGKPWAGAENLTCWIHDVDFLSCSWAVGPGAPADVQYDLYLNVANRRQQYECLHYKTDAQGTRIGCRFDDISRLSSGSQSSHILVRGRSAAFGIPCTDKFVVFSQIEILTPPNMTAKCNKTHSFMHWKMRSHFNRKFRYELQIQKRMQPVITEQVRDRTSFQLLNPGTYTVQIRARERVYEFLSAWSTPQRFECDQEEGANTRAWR
Kind of test: SPR ProteOn, captured mAb.

Test [2] has as its target T1, Recombinant human CD123 SP1 ECD-His tag …. The experiment in a line: SPR Biacore T200, captured antibody. As for the experimental part: Kinetic studies were performed at 25° C. using a Biacore T200 (Biacore, Inc., now part of GE Healthcare). […] The carboxymethyl groups of dextran were activated with N-Ethyl-N′-(3-Dimethylaminopropyl)carbodiimide (EDC) and N-hydroxysuccinimide (NHS). The anti-Fc antibody was coupled at pH 4.5 in 10 mM sodium acetate. Any remaining reactive sites on the surface were blocked by reaction with ethanolamine. […] 40-70 RU of antibody were captured. […] Association data was collected for 2 min followed by 10 min of dissociation. The surface was regenerated with 30 μL of 100 mM H3PO4 100 μL/min, followed by 50 mM NaOH. The samples for kinetic analysis were prepared in PBS-based buffer (D-PBS containing 3 mM EDTA and 0.005% surfactant P20). Data reported is the difference in SPR signal between the flow cell containing the captured antibody and a reference cell without captured antibody. Additional instrumental contributions to the signal were removed by subtraction of the data from the blank injection from the reference-subtracted signal. Data were analyzed by fitting association and dissociation phases at all concentrations (global fit) with a 1:1 binding model using the BIAevaluation software (BIAcore, Inc.).
(In general: SPR reads the build-up and loss of mass on a sensor chip optically.)

Test [3] deals with T2, cyno CD123 ECD displayed on pDisplay-transfected cells (cynomolgus monkey).
T2 construct: ECD anchored on the surface of stably transfected HEK293 cells; also called cynoCD123 SP1 cells; cynoCD123 cells
T2 chain: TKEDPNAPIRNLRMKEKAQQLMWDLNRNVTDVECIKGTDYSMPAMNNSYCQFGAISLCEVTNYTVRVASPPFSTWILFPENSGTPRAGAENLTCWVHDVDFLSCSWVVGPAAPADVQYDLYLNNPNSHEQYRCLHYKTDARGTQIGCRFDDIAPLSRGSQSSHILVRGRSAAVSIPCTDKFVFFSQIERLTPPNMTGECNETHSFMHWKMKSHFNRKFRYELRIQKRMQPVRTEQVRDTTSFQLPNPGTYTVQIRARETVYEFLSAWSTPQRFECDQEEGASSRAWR
Kind of test: MSD-CAT on cyno pDisplay cells. On the procedure: Cell lines used were human pDisplay CD and cyno pDisplay CD123SP1. […] These samples were prepared in DMEM Glutamax medium containing 0.05% Azide, 1% BSA, 3 mM EDTA. The receptor numbers of (3.15-4.18)×10⁶ hCD123/cell and (4.78-9.24) 10⁶ cyCD123/cell were converted to M receptor concentration in the mixture on the basis of the volume of reaction, the cell density (cells/L) and the Avogadro's number. […] After equilibration the plate was centrifuged for 5 min ˜1000 rpm and free anti-CD3 detected on the supernatant. […] The assay buffer was removed without washing and 50 μL/well of 0.7 μg/mL of biotinylated antigen in assay buffer were added to MSD plates and incubated overnight (˜16 hr at 4° C.). After overnight incubation, the plates were blocked by adding 150 μL/well of assay buffer without removing coating antigen, incubated for ˜1 hr at ambient temperature and washed 5 times with wash buffer (assay buffer without BSA). 50 μL/well of the supernantants from samples plate were transferred to antigen-coated plates, incubated for 60 min, and then washed three times with wash Buffer. […] After 1 hr the plates were washed and 150 μL of MSD Read Buffer (prepared by diluting 1:4 of stock into d. H₂O) were added per well. The plates were read immediately on the MSD Sector Imager 6000 Reader for luminescence levels.

In test [4] the target is T2, cyno CD123 ECD displayed on …. The experiment in a line: MSD-CAT on pDisplay cells. As for the experimental part: After equilibration the plate was centrifuged for 5 min ˜1000 rpm and free anti-CD3 detected on the supernatant. […] The assay buffer was removed without washing and 50 μL/well of 0.7 μg/mL of biotinylated antigen in assay buffer were added to MSD plates and incubated overnight (˜16 hr at 4° C.). After overnight incubation, the plates were blocked by adding 150 μL/well of assay buffer without removing coating antigen, incubated for ˜1 hr at ambient temperature and washed 5 times with wash buffer (assay buffer without BSA). 50 μL/well of the supernantants from samples plate were transferred to antigen-coated plates, incubated for 60 min, and then washed three times with wash Buffer. After this 50 μL per well of ruthenium labeled detection antibody(anti-human H+L) were added and incubated for 1 hr. After 1 hr the plates were washed and 150 μL of MSD Read Buffer (prepared by diluting 1:4 of stock into d. H₂O) were added per well. The plates were read immediately on the MSD Sector Imager 6000 Reader for luminescence levels. ECL signal detected by MSD was expressed in term of % free antibody in the mixture and the data was analyzed to determine affinity using a user defined equation (derived from the law of mass action) introduced in Prism software.

B1: I3RB18 (antibody, IgG1, V domains shown)
VH: EVQLVQSGAEVKKPGESLKISCKGSGYSFTSYWISWVRQMPGKGLEWMGIIDPSDSDTRYSPSFQGQVTISADKSISTAYLQWSSLKASDTAMYYCARGDGSTDLDYWGQGTLVTVSS
VL: EIVLTQSPGTLSLSPGERATLSCRASQSVSSSYLAWYQQKPGQAPRLLIYGASSRATGIPDRFSGSGSGTDFTLTISRLEPEDFAVYYCQQDYGFPWTFGQGTKVEIK
notes: IgG1; also called 13RB18; mAb I3RB18
One may read the Kd as the free concentration of one partner at which half of the binding sites on the other are occupied at equilibrium, for simple one-to-one binding. For orientation: koff means the rate constant with which the complex falls apart. By kon is commonly meant the second-order rate constant of association. With B1, in test [1], the equilibrium dissociation constant (Kd) was 0.57 nM, the koff is 0.00082 s⁻¹ and the kon is 1.44e+06 M⁻¹ s⁻¹. In test [2], the Kd is 0.935 nM, the off-rate constant (koff) amounted to 0.00072 s⁻¹ and the kon was found to be 773000 M⁻¹ s⁻¹. Further, the Kd in test [3] is more than 12 nM. Besides, the “fold weaker than to human CD123 SP1” value in test [4] was more than 10 fold.

Values taken from patent publication US20160068605A1 (Janssen / Centocor, published 2016).
